Assay results taken from patent US20220298217A1 (FLAGSHIP PIONEERING INNOVATIONS VI, published 2022).
Several values for one entry are separate records, joined by “and”; a condition that tells them apart may be missing. Equal entries are not always repeated.

Molecular target: T1, Flag-PTHR1-YFP (parathyroid hormone receptor 1) expressed in transfected HEK293T cells (human, UniProt Q03431 27-593)
T1 sequence (looked up): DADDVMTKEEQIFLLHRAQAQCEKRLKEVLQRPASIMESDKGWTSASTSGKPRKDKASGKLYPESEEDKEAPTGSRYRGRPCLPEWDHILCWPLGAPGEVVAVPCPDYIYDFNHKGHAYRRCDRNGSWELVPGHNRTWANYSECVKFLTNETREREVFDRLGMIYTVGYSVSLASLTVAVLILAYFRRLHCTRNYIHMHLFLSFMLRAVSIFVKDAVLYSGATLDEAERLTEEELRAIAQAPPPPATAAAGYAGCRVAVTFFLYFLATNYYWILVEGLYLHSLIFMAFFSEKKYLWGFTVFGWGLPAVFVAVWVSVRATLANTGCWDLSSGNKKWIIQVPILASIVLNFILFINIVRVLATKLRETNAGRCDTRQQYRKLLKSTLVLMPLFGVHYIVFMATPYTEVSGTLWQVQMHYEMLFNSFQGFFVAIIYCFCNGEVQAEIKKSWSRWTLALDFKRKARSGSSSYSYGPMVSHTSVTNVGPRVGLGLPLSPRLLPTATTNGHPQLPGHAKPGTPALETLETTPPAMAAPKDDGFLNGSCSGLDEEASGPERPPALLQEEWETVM
Experiment: cell-based or functional assay

Q: For AVAEIQLMHQRAKWKLDLELAVSLRKILEDVY [R2-27], which “arrestin 1, plate 17: -log10EC50” value is on record?
A: The value was -7.92 -log10EC50 and -8.02 -log10EC50.

Q: What about the “arrestin 2, plate 18: -log10EC50” value of the same binder?
A: The value was -7.65 -log10EC50 and -8.08 -log10EC50.

Q: With AVAEIQLMHQRAKWGVELQLKVDLRRILEDVY [R2-35] as the binder, how does the “arrestin 1, plate 9: -log10EC50” value read?
A: The value was -3.53 -log10EC50.

Q: And the “arrestin 1, plate 9: Emax” value?
A: The value was 16.9.

Q: What about the “arrestin 1, plate 19: -log10EC50” value of the same binder?
A: The value was -6.57 -log10EC50 and -7.44 -log10EC50.

Q: What about the “arrestin 2, plate 20: -log10EC50” value of the same binder?
A: The value was -7.67 -log10EC50 and -7.82 -log10EC50.

Q: For AVAEIQLMHQRAKWKLELELKEKIRKLLEDLL [R2-29], which “arrestin 1, plate 17: -log10EC50” value is on record?
A: Its value is -8.15 -log10EC50 and -8.77 -log10EC50.

Q: What about the “arrestin 2, plate 18: -log10EC50” value of the same binder?
A: Its value is -8.39 -log10EC50 and -8.46 -log10EC50.

Q: Which “arrestin 1, plate 11: -log10EC50” value does the source give for AVAEIQLMHQRAKWAIQEIGIKITRELLERYL [R2-42] here?
A: Its value is -7.98 -log10EC50.

Q: What about the “arrestin 1, plate 11: Emax” value of the same binder?
A: Its value is 7.87.

Q: And the “arrestin 1, plate 21: -log10EC50” value?
A: Its value is -4.99 -log10EC50 and -7.96 -log10EC50.

Q: What about the “arrestin 2, plate 22: -log10EC50” value of the same binder?
A: Its value is -7.63 -log10EC50 and -8.09 -log10EC50.

Q: Which results are given for AVAEIQLMHQRAKWEIQEIGIKITLELLKEYI [R2-37]?
A: arrestin 1, plate 9: -log10EC50: -5.08 -log10EC50; arrestin 1, plate 9: Emax: 19.4; arrestin 1, plate 19: -log10EC50: -3.6 -log10EC50 and -6.48 -log10EC50; arrestin 2, plate 20: -log10EC50: -6.3 -log10EC50 and -6.41 -log10EC50

Q: AVAEIQLMHQRAKWGLDLELRARLREILRDVY [R2-31] was tested. Which “arrestin 1, plate 17: -log10EC50” value did it give?
A: The value was -8 -log10EC50 and -8.53 -log10EC50.

Q: What about the “arrestin 2, plate 18: -log10EC50” value of the same binder?
A: Its value is -8.12 -log10EC50 and -8.18 -log10EC50.

Q: Which results are given for AVAEIQLMHQRAKWELQEIGIAITLRLLARYI [R2-43]?
A: arrestin 1, plate 13: -log10EC50: -8.31 -log10EC50; arrestin 1, plate 13: Emax: 7.23; arrestin 1, plate 23: -log10EC50: -6.3 -log10EC50 and -8.03 -log10EC50; arrestin 2, plate 24: -log10EC50: -6.24 -log10EC50 and -7.91 -log10EC50

Q: With AVAEIQLMHQRAKWLNELRLKEEMRKILEDVY [R2-33] as the binder, how does the “arrestin 1, plate 9: -log10EC50” value read?
A: Its value is -8.23 -log10EC50.

Q: And the “arrestin 1, plate 9: Emax” value?
A: Its value is 7.38.

Q: And the “arrestin 1, plate 19: -log10EC50” value?
A: Its value is -7.99 -log10EC50 and -8.4 -log10EC50.

Q: And the “arrestin 2, plate 10: -log10EC50” value?
A: Its value is -8.31 -log10EC50.

Q: What about the “arrestin 2, plate 20: -log10EC50” value of the same binder?
A: The value was -8.09 -log10EC50 and -8.12 -log10EC50.

Q: For AVAEIQLMHQRAKWKLELELKAFLDQILKDVL [R2-36], which “arrestin 1, plate 9: -log10EC50” value is on record?
A: The value was -8.83 -log10EC50.

Q: What about the “arrestin 1, plate 9: Emax” value of the same binder?
A: The value was 7.4.

Q: And the “arrestin 1, plate 19: -log10EC50” value?
A: The value was -8.33 -log10EC50 and -8.54 -log10EC50.

Q: What about the “arrestin 2, plate 20: -log10EC50” value of the same binder?
A: The value was -8.27 -log10EC50 and -8.6 -log10EC50.

Q: Which “arrestin 1, plate 11: -log10EC50” value does the source give for AVAEIQLMHQRAKWELQEIGIKITLDLLEAYL [R2-39] here?
A: Its value is 2.64 -log10EC50.

Q: And the “arrestin 1, plate 11: Emax” value?
A: Its value is 15.4.

Q: What about the “arrestin 1, plate 21: -log10EC50” value of the same binder?
A: Its value is -6.11 -log10EC50 and -6.23 -log10EC50.

Q: And the “arrestin 2, plate 22: -log10EC50” value?
A: The value was -6.95 -log10EC50 and -6.4 -log10EC50.

Q: What does the source list for AVAEIQLMHQRAKWRLEIELLKKLKEILKDVY [R2-34]?
A: arrestin 1, plate 9: -log10EC50: -8.56 -log10EC50; arrestin 1, plate 9: Emax: 7.29; arrestin 1, plate 19: -log10EC50: -8.18 -log10EC50 and -8.48 -log10EC50; arrestin 2, plate 20: -log10EC50: -8.09 -log10EC50 and -8.34 -log10EC50

Q: What does the source list for AVAEIQLMHQRAKWLEELKLKDDLRKILEDVY [R2-30]?
A: arrestin 1, plate 17: -log10EC50: -7.88 -log10EC50 and -8.28 -log10EC50; arrestin 2, plate 18: -log10EC50: -7.92 -log10EC50 and -8.3 -log10EC50

Q: Which results are given for AVAEIQLMHQRAKWSLREELEKLLKELLKEYI [R2-44]?
A: arrestin 1, plate 13: -log10EC50: -8.54 -log10EC50; arrestin 1, plate 13: Emax: 7.41; arrestin 1, plate 23: -log10EC50: -7.82 -log10EC50 and -8.55 -log10EC50; arrestin 2, plate 24: -log10EC50: -7.99 -log10EC50 and -5.45 -log10EC50

Q: AVAEIQLMHQRAKWGLEIELLKLLLSLLKEYI [R2-45] was tested. Which “arrestin 1, plate 13: -log10EC50” value did it give?
A: The value was -6.32 -log10EC50.

Q: And the “arrestin 1, plate 13: Emax” value?
A: The value was 20.4.

Q: What about the “arrestin 1, plate 23: -log10EC50” value of the same binder?
A: The value was -6.33 -log10EC50 and -6.27 -log10EC50.

Q: What about the “arrestin 2, plate 24: -log10EC50” value of the same binder?
A: Its value is -6.47 -log10EC50 and -6.59 -log10EC50.

Q: What does the source list for AVAEIQLMHQRAKWSILEELLKILTALLDEYI [R2-46]?
A: arrestin 1, plate 13: -log10EC50: -6.25 -log10EC50; arrestin 1, plate 13: Emax: 17.3; arrestin 1, plate 23: -log10EC50: -6.35 -log10EC50 and -6.4 -log10EC50; arrestin 2, plate 24: -log10EC50: -6.26 -log10EC50 and -6.27 -log10EC50
